Reference: US20230049152A1 (Genentech, published 2023)

T1: S8A
T1 construct: single alanine mutant of hCCR8; also called hCCR8 S8A
T1 receptor chain: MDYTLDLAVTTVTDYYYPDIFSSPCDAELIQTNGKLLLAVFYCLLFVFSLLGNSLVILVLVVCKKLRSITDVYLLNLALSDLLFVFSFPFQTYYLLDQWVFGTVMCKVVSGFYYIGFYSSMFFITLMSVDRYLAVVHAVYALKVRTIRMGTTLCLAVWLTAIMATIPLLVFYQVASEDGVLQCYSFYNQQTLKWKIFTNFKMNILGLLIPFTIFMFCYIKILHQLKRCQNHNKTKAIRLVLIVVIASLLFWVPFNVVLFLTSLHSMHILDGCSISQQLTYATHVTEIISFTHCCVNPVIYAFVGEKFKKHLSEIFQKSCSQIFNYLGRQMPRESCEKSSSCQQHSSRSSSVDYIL

T2: T4A
T2 construct: single alanine mutant of hCCR8; also called hCCR8 T4A
T2 receptor chain: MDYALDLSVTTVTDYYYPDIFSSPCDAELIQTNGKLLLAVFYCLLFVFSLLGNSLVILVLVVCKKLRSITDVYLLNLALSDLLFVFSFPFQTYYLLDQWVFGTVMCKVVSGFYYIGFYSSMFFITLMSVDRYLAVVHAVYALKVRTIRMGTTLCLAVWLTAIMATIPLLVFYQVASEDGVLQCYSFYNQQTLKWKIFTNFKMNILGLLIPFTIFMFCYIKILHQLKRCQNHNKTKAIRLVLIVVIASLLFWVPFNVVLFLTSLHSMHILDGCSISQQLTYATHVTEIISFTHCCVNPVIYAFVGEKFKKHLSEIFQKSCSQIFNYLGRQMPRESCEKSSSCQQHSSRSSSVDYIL

T3: I20A
T3 construct: single alanine mutant of hCCR8; also called hCCR8 I20A
T3 receptor chain: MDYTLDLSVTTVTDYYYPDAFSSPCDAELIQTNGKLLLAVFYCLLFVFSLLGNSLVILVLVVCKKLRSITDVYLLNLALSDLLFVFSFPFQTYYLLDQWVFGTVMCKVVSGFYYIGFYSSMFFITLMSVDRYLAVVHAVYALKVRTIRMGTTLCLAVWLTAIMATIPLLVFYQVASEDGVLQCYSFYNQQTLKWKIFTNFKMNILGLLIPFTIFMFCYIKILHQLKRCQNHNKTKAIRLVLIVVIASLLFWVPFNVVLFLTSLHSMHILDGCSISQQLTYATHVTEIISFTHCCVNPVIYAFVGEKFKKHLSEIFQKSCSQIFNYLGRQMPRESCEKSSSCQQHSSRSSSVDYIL

T4: P24A
T4 construct: single alanine mutant of hCCR8; also called hCCR8 P24A
T4 receptor chain: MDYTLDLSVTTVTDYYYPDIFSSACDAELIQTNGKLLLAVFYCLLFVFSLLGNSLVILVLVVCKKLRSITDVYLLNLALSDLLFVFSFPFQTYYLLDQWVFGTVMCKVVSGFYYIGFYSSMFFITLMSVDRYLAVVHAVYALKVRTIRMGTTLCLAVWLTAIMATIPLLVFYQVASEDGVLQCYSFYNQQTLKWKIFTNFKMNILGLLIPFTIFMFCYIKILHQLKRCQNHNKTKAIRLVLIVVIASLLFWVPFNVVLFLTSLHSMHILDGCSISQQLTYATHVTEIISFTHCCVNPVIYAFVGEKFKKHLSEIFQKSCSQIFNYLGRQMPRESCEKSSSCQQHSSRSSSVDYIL

T5: S23A
T5 construct: single alanine mutant of hCCR8; also called hCCR8 S23A
T5 receptor chain: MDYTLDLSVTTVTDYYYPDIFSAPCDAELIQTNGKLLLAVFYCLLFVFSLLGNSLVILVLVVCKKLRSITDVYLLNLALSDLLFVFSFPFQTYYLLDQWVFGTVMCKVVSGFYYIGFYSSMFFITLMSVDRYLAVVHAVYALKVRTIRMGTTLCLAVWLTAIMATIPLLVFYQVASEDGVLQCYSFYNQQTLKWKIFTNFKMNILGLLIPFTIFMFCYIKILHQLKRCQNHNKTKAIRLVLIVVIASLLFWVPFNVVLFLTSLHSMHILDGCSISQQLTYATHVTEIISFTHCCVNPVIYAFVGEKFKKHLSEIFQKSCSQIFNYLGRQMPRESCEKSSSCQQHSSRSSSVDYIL

T6: Y16A
T6 construct: single alanine mutant of hCCR8; also called hCCR8 Y16A
T6 receptor chain: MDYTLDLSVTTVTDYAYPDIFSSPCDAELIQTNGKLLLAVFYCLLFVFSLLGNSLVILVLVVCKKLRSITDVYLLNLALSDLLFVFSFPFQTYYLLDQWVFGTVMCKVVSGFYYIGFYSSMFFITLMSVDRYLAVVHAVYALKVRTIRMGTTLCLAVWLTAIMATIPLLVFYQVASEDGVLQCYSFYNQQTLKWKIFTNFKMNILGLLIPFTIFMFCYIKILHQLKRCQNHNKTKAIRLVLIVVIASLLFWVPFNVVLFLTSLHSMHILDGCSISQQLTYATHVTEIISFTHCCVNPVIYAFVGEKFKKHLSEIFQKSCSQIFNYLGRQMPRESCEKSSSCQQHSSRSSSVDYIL


Experiments:
human CCR8 = human CCR8 (human, UniProt P51685 1-355); test: cell-based or functional assay
S8A = target: T1, S8A; test: flow cytometry, HEK293 transfected with hCCR8 S8A with C-terminal FLAG; sheet prints [huCCR8]=0.02 ug/ml
T4A = target: T2, T4A; test: flow cytometry, HEK293 transfected with hCCR8 T4A with C-terminal FLAG; sheet prints [huCCR8]=0.02 ug/ml
Method: (§1) FIGS. 16A-16B depict the epitope maps for hu.Ab5.H13L1 (FIG. 16A) and hu.Ab4.H12L3 (FIG. 16B) mAbs.
(§2) To epitope map fucosylated hu.Ab5.H13L1, the binding to alanine point mutations in human CCR8 was analyzed by flow cytometry.

I20A = target: T3, I20A; test: flow cytometry, HEK293 transfected with hCCR8 I20A with C-terminal FLAG; sheet prints [huCCR8]=0.02 ug/ml
P24A = target: T4, P24A; test: flow cytometry, HEK293 transfected with hCCR8 P24A with C-terminal FLAG; sheet prints [huCCR8]=0.02 ug/ml
S23A = target: T5, S23A; test: flow cytometry, HEK293 transfected with hCCR8 S23A with C-terminal FLAG; sheet prints [huCCR8]=0.02 ug/ml
Method: as §1, §2

Y16A = target: T6, Y16A; test: flow cytometry, HEK293 transfected with hCCR8 Y16A with C-terminal FLAG; sheet prints [huCCR8]=0.02 ug/ml

ADCP EC50, macrophages HR/FF (FIG. 14A) (human CCR8) [nM]	ADCP EC50, macrophages RR/FF (FIG. 14B) (human CCR8) [nM]	ADCP EC50, macrophages RR/VF (FIG. 14D) (human CCR8) [nM]	binding result (S8A)	binding result (T4A)	binding result (I20A)	binding result (P24A)	binding result (S23A)	binding result (Y16A)	Binder
0.35	0.81	0.41	–	–	–	–	–	–	hu.Ab4.H12L3 (antibody, human IgG1, kappa, fucosylated human IgG1; also called huCCR8-Ab4.H12L3.hIgG1; Ab4 variant) heavy: not shown light: DYQMTQSPSSLSASVGDRVTITCQASQSISSYLSWYQQKPGKAPKLLIYKASTLASGVPSRFSGSGSGTDFTLTISSLQPEDFATYYCQQGYTSSNIDNIFGGGTKVEIKRTVAAPSVFIFPPSDEQLKSGTASVVCLLNNFYPREAKVQWKVDNALQSGNSQESVTEQDSKDSTYSLSSTLTLSKADYEKHKVYACEVTHQGLSSPVTKSFNRGEC
–	–	–	binds	binds	binds	binds	binds	binds	hu.Ab5.H13L1 (antibody, human IgG1, kappa, fucosylated human IgG1; also called Ab5 variant) heavy: not shown light: DIQVTQSPSSLSASVGDRVTITCQASENIANALAWYQQKPGKPPKFLIYGASNLASGVPSRFSGSGSGTDFTFTISSLQPEDIATYYCQQAYYGNSFVEGTFGGGTKVEIKRTVAAPSVFIFPPSDEQLKSGTASVVCLLNNFYPREAKVQWKVDNALQSGNSQESVTEQDSKDSTYSLSSTLTLSKADYEKHKVYACEVTHQGLSSPVTKSFNRGEC
